Laboratory results taken from the supplement of paper PMC6379048.

Key:
Assay in all cases: Kd (EC50 corrected by depletion factor)
MSI2 = MSI2 (UniProt Q96DH6)
Summary of the method: (§1)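 HEK293-FT lysate (2.5 mg protein/well) was pre-incubated 1 h at 4°C with free RNA oligos (0 nM to 30 μM), then 30 min at 4°C with the same 5′-amino-C6 oligos coupled to NHS-Sepharose beads. Bound proteins were quantified by label-free LC-MS/MS in three biological replicates and two independent experiments, and normalised to the water control. EC50 came from a four-parameter log-logistic fit; Kd is EC50 times a protein-dependent depletion factor.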

CPSF2 = molecular target: T1, CPSF2 (UniProt Q9P2I0)
T1 sequence: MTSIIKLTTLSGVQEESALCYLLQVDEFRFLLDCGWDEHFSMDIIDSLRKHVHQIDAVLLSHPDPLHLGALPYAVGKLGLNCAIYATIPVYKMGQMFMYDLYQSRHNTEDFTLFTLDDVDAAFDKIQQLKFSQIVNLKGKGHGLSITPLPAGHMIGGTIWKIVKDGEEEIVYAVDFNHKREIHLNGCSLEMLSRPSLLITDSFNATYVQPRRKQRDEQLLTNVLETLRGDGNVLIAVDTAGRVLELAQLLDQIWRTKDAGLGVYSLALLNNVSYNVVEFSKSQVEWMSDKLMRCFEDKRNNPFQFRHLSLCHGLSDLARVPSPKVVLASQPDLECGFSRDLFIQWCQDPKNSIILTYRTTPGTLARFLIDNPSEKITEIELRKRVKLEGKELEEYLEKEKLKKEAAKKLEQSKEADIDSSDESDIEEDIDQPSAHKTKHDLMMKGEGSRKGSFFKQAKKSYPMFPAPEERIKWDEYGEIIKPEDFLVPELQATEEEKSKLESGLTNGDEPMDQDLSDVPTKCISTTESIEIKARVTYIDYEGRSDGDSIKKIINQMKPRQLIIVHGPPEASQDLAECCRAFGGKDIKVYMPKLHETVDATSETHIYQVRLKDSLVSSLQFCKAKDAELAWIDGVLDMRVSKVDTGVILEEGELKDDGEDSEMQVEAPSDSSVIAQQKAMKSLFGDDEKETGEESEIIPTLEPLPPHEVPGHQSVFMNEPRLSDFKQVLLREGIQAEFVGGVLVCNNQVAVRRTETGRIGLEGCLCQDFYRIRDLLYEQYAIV
Summary of the method: as §1

CPSF1 = molecular target: T2, CPSF1 (UniProt Q10570)
T2 sequence: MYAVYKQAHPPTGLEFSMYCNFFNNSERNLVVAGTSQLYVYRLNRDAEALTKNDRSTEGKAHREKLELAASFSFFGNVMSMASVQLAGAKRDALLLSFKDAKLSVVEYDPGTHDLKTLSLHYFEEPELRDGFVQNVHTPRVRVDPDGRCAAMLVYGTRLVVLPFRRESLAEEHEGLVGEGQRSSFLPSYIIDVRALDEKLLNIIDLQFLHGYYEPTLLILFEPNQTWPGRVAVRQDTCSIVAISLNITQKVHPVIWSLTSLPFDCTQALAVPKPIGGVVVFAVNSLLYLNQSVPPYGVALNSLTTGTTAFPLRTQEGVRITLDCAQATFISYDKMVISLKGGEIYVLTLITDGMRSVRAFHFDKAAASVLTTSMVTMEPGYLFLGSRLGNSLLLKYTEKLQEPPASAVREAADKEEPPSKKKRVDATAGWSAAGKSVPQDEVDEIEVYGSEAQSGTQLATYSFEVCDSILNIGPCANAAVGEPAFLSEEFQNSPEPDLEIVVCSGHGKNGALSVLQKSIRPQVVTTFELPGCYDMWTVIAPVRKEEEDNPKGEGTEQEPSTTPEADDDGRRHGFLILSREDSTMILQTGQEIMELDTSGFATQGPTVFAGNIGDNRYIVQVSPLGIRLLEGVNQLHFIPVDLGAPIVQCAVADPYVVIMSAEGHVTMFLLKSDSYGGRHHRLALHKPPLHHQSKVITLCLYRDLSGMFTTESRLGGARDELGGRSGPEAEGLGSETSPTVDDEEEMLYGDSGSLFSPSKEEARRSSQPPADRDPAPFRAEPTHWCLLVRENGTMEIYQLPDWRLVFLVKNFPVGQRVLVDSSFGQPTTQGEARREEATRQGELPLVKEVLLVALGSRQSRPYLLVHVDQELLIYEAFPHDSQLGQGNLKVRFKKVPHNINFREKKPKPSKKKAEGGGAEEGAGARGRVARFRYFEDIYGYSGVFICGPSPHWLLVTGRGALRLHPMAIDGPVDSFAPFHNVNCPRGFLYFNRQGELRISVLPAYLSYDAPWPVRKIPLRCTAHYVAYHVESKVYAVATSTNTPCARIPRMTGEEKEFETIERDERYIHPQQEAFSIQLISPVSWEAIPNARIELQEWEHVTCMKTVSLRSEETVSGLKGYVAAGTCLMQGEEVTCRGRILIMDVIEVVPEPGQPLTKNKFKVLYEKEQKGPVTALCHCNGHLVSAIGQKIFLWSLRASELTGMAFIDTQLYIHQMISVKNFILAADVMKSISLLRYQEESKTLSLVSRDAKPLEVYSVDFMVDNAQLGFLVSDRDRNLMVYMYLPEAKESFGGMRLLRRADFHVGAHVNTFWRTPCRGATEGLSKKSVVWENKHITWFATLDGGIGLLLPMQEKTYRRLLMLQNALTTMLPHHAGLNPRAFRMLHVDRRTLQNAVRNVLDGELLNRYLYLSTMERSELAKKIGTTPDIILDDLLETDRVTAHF
Summary of the method: as §1

ELAVL2 = ELAVL2 (UniProt Q12926)
Chain of ELAVL2 (Q12926 whole entry): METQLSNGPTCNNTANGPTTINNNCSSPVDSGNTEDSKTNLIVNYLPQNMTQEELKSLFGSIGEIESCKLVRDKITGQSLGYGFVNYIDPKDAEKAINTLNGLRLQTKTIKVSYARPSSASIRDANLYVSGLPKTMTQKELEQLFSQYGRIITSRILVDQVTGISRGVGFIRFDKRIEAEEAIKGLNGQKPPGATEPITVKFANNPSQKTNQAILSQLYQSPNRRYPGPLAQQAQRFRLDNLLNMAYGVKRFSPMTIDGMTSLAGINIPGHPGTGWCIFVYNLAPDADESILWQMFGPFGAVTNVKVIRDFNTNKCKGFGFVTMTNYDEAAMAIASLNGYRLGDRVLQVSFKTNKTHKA
Summary of the method: as §1

RBM4 = molecular target: T3, RBM4 (UniProt Q9BWF3)
T3 sequence: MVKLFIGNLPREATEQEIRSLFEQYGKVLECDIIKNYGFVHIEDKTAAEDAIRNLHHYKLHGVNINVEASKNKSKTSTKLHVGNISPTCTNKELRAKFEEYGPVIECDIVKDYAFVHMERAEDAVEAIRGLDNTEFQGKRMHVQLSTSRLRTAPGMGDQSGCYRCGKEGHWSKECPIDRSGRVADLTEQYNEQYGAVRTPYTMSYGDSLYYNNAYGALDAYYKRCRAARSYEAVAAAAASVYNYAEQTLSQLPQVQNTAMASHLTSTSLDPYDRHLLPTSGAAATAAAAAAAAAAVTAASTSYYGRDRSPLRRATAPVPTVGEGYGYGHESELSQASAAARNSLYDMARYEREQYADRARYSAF
Summary of the method: as §1

Chain of MSI2 (Q96DH6 whole entry): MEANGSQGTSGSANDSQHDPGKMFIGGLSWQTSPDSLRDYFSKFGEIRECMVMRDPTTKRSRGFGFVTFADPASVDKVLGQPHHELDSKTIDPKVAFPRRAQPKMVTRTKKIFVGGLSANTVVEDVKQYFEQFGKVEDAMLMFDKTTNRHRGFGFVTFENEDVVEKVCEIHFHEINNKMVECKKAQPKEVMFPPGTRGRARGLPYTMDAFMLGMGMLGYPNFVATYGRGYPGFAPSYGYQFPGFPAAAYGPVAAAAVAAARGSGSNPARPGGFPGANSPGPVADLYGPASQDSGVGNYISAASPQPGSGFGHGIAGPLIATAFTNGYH

Sequence | Kd (MSI2) | Kd (CPSF2) | Kd (CPSF1) | Kd (ELAVL2) | Kd (RBM4)
UAUUUAU | 475 nM | 452 nM | 340 nM | 3670 nM | –
CUGUCCU | – | – | – | – | 131 nM
AAUAAA | 104 nM | 5.66 nM | 6.97 nM | 8830 nM | 344 nM
